Source: patent US20230273213A1, “PEPTIDE DESIGN AND GALECTIN-3 INHIBITORS” (City of Hope, priority 2020, published 2023)
Values belong to the molecule of their own block, whether it stands above or below them.

Tests used:
[1] = target: T1, GST-Galectin-3 (Homo sapiens, UniProt P17931); assay: Galectin-3 mediated agglutination assay on LAX56 pre-B ALL cells; type: cell-based
T1 construct: Full-length human GST-Galectin-3 (hereafter named GST-Gal3) in pGEX2T was previously described; made in house
Procedure: Cells, culture and agglutination assay. LAX56 human pre-B ALL cells were routinely co-cultured with mitomycin-C inactivated OP9 stromal cells. These previously described primary leukemia cell grew directly out from a relapse bone marrow sample (36, 37). For agglutination assays, cells were harvested, washed once in α-MEM medium, resuspended in 10 ml X-VIVO 15 medium (Lonza) and incubated at 37° C. for 24 h remove the Galectin-3 produced by OP9 stromal cells. For the assay, ALL cells were resuspended in X-VIVO 15 medium at a concentration of 1×10^6/ml and seeded at 2×10^5/200 μl cells into wells. […] Peptides, if included, were preincubated for 5 minutes with the recombinant proteins and added at different concentrations as indicated in the figures. TD139 was purchased from MedChemExpress and used at 100 μM. Phase contrast images were taken after 1-2 hours. Agglutination was defined as aggregates containing >10 cells per cluster. 2-13 images from different areas were taken and evaluated for cell clusters per condition. Biological data were graphed with GraphPad Prism software (version8.3.1). Values represent mean±SEM of the number of aggregates scored per independent image.
We used two approaches to test this experimentally. Mutation of critical residues in that pocket could abolish binding to the IDR and the agglutination activity of Galectin-3. Also, a peptide could potentially fit in the shallow pocket and inhibit the IDR interaction. A classical test for carbohydrate-binding activity of a lectin including Galectin-3 is an agglutination assay (36, 38, 42). In this assay, recombinant Galectin-3 is tested for its ability to promote lattice formation by binding in a multivalent manner to glycoproteins located on the cell surface: when cell surface glycoprotein targets are located on different cells, carbohydrate binding combined with multimer formation causes cellular agglutination. […] Thus we used an agglutination assay in which recombinant Galectin-3 is added to patient-derived precursor B-acute lymphoblastic leukemia cells (pre-B ALL) as a readout for Galectin-3 lattice-forming activity.

[2] = target: T2, GST-Gal3 L203A (Homo sapiens, UniProt P17931, L203A); assay: agglutination assay with GST-Gal3 L203A mutant; type: cell-based; conditions: LAX56 cells
T2 construct: Full-length human GST-Galectin-3 (hereafter named GST-Gal3) in pGEX2T was previously described; made in house; host or cells: E. coli BL21(DE3)
Procedure: (§1) Cells, culture and agglutination assay. LAX56 human pre-B ALL cells were routinely co-cultured with mitomycin-C inactivated OP9 stromal cells. These previously described primary leukemia cell grew directly out from a relapse bone marrow sample (36, 37). For agglutination assays, cells were harvested, washed once in α-MEM medium, resuspended in 10 ml X-VIVO 15 medium (Lonza) and incubated at 37° C. for 24 h remove the Galectin-3 produced by OP9 stromal cells. For the assay, ALL cells were resuspended in X-VIVO 15 medium at a concentration of 1×10^6/ml and seeded at 2×10^5/200 μl cells into wells. GST (12.5 μg/ml) or GST-Galectin-3 (25 μg/ml or 150 μg/ml, two different isolates) recombinant proteins were added in 300 μl X-VIVO 15 medium to duplicate wells. Peptides, if included, were preincubated for 5 minutes with the recombinant proteins and added at different concentrations as indicated in the figures. TD139 was purchased from MedChemExpress and used at 100 μM. Phase contrast images were taken after 1-2 hours. Agglutination was defined as aggregates containing >10 cells per cluster. 2-13 images from different areas were taken and evaluated for cell clusters per condition. Biological data were graphed with GraphPad Prism software (version8.3.1). Values represent mean±SEM of the number of aggregates scored per independent image.
(§2) GST-Galectin-3 and mutants. […]

[3] = target: T3, GST-Gal3 L131A (Homo sapiens, UniProt P17931, L131A); assay: agglutination assay with GST-Gal3 L131A mutant; type: cell-based; conditions: LAX56 cells
T3 construct: Full-length human GST-Galectin-3 (hereafter named GST-Gal3) in pGEX2T was previously described; made in house; host or cells: E. coli BL21(DE3)
Procedure: as §1, §2

[4] = target: T4, Galectin-3 CTD (Homo sapiens, UniProt P17931); assay: 15N-1H HSQC NMR titration of Galectin-3 CTD with peptide-3; type: binding
T4 construct: We generated a Galectin-3 CTD construct including amino acids 117-250; GST (N, cleaved yes); made in house; host or cells: E. coli BL21(DE3), M9 medium with 15N ammonium chloride
Procedure: Galectin-3 CTD construct for NMR. The Galectin-3 C-terminal domain construct was generated using the same methods described above for the mutants. The protein includes Galectin-3 amino acids P117-1250 as well as residual attached glycine and serine residues after thrombin cleavage. Single colonies were grown overnight in LB+ amp, collected by centrifugation then inoculated in M9 media with ammonium-^15N chloride (Sigma) and grown for 3-4 hours. After induction of protein production with IPTG for an 3-4 additional hrs, cells were harvested and suspended in 1% NP40, PI, PMSF, 1 mM DTT, 50 mM Tris-HCl, pH 7.5. Cells were disrupted by sonication. GST-Galectin-3 was bound to glutathione-agarose (Genscript Cat #L00207) overnight at 4° C. Beads were washed 4× in lysis buffer, then suspended in 50 mM Tris-HCl pH 7.5, 0.1 mM DTT and treated with 60 u thrombin/ml (Fisher Cytiva Thrombin Protease) for 16 hrs at RT. The supernatant containing Galectin-3 protein was treated with benzamidine sepharose (Sigma, HiTrap Benzamidine FF) to bind and remove thrombin. Protein was concentrated using an Amicon 3K filter and used in 20 mM potassium phosphate buffer pH 6.8, 0.1 mM DTT for NMR. Protein concentrations were determined by BCA.
NMR. ^15N-^1H HSQC 700 MHz spectra were acquired with 20 μM Galectin-3 CTD [in 20 mM potassium phosphate buffer, pH 6.8, 0.1 mM DTT] and different molar ratios of added peptide-3 as indicated in FIG. 5. The chemical shift perturbation (CSP) 06 was calculated using the following equation: Δ\ delta=√{square root over ((ΔωN^2+ΔωH^2)/2)}. The ΔωN and ΔωH are the nitrogen and proton chemical shift difference between free ^15N-CTD and that in the mixture with P3 peptide. Assignments are based on the Galectin-3 CTD NMR data of Ippel (25) and Umemoto (39). […] Because L135 and W181 patterns differ between Ippel and Umemoto, their assignments could not be unambiguously determined. […]

[5] = GST-Gal3, 1-2 hours, peptide preincubated 5 minutes with protein

T4 sequence (P17931 117-250): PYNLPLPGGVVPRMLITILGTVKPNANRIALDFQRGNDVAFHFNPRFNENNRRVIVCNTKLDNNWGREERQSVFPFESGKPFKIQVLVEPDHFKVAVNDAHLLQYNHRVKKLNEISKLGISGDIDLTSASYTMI
T1 sequence (P17931 2-250): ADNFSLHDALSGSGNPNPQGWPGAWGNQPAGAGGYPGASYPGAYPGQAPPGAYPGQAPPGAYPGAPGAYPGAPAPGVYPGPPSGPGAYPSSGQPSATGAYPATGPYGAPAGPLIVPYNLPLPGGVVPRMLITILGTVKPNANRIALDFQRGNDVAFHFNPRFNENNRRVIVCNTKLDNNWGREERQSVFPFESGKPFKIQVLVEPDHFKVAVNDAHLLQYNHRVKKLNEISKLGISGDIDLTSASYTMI
T3 sequence (P17931 whole entry L131A): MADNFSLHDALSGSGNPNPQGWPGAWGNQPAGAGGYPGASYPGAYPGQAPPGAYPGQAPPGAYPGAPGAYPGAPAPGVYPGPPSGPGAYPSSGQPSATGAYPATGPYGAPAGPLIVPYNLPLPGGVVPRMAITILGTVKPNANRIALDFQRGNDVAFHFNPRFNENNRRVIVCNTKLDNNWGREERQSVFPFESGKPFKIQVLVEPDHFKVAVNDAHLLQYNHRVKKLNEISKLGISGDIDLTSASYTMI
T2 sequence (P17931 whole entry L203A): as the sequence (P17931 whole entry L131A) above, with A131L, L203A counted along it

effect on Galectin-3-mediated agglutination ([1]; GST-Gal3, 100 μM, positive control): clearly inhibited
Molecule: OC[C@H]1O[C@@H](S[C@@H]2O[C@H](CO)[C@H](O)[C@H](n3cc(-c4cccc(F)c4)nn3)[C@H]2O)[C@H](O)[C@@H](n2cc(-c3cccc(F)c3)nn2)[C@H]1O [TD139, 3-deoxy-3-[4-(3-fluorophenyl)-1H-1,2,3-triazol-1-yl]-β-D-galactopyranosyl 3-deoxy-3-[4-(3-fluorophenyl)-1H-1,2,3-triazol-1-yl]-1-thio-β-D-galactopyranoside, reference compound]

Molecule: ACE-ARAMGYPGASY-NH2 (Ac-ARAMGYPGASY-NH2) [Peptide 1]
effect on Galectin-3-mediated agglutination [1, 5]: had no effect on agglutination

effect on Galectin-3-mediated agglutination [1, 5]: positive hit
effect on Galectin-3-mediated agglutination ([1]; GST-Gal3, 1-2 hours, peptide preincubated 5 minutes with protein, listed as P3): efficiently inhibits
effect on Galectin-3-mediated agglutination ([1]; GST-Gal3, 1-2 hours, peptide preincubated 5 minutes with protein, listed as peptide 3): inhibits agglutination
effect on Galectin-3-mediated agglutination ([1]; GST-Gal3, 1-2 hours, peptide preincubated 5 minutes with protein, listed as peptide-3): clearly was inhibitory
inhibition of agglutination mediated by the L203A mutant [2]: could still be inhibited
inhibition of agglutination mediated by the L131A mutant [3]: largely insensitive to inhibition
shift of S-face residues R186, K227 or Y221 upon exposure ([4]; data not shown): no shift
chemical shift perturbation (CSP) of residue T248 ([4]; one unit of RMSD): about 10.9 Hz
Molecule: ACE-YYPGAYPRRYR-NH2 (Ac-YYPGAYPRRYR-NH2) [Peptide 3]
effect on Galectin-3-mediated agglutination ([1]; GST-Gal3, 1-2 hours, peptide preincubated 5 minutes with protein, listed as YYPGAYPRRYR): inhibits Galectin-3 mediated agglutination
contacts with the CTD by NMR ([4]; 20 μM 15N CTD, up to 100:1 peptide:CTD): makes extensive contacts with amino acids in the CTD

effect on Galectin-3-mediated agglutination [1, 5]: did not have an effect
Molecule: ANTPCGPYTHDCPVKR [Peptide-4, reference compound]

effect on Galectin-3-mediated agglutination [1, 5]: had no effect on agglutination
Molecule: N-terminal acetyl-ARAFGYPIYSY-C-terminal amide (Ac-ARAFGYPIYSY-NH2) [Peptide 2]

effect on Galectin-3-mediated agglutination [1, 5]: did not have an effect
Molecule: PTHVTCKYCPAGNRDP [Peptide-5, scrambled negative control peptide described in the same study, reference compound]
